Positions count from the first letter of the chain named.
B1: KN035 sdAb mutant 1 (VHH)
VHH: QVQLQESGGGSVQAGGSLRLSCAASGKMSSRRCMGWFRQAPGKERVGVAAIDSDGTTKYADSMKGRFTISKDNAKNTLDLQMNSLKPEDTAMYYCVADSFEDPTCTLVTSSGAFQYRGQGTQVTVSS
notes: Expressed in HEK293, IMAC purified; not shown: C-terminal His-tag
B2: KN035 sdAb mutant 2 (VHH)
VHH: B1 VHH with E44Q, A50T, K58R, A60V, M63V, V96A
notes: not shown: C-terminal His-tag
B3: KN035 single domain antibody mutant m3 (VHH)
VHH: QVQLQESGGGLVQPGGSLRLSCAASGKMSSRRCMAWFRQAPGKERERVADVNPNSGGSIYNQRFKGRFTISQNNAKSTVYLQMNSLKPEDTAMYYCAADSFEDPTCTLVTSSGAFQYWGQGTQVTVSS
notes: not shown: C-terminal His-tag (obtained 'by the above method')

These binders were tested against T1, hPD-L1-Fc (human, UniProt Q9NZQ7 20-239, limits assumed) (assay: competitive ELISA, hPD-L1-Fc coated, competitor hPD-1-hIgG-biotin 10 ug/ml; against wild-type KN035).
T1 construct: also called PDL1-Fc fusion protein; human PDL1 protein; not shown: Fc part
T1 sequence (Q9NZQ7 other isoform, or with tags, fused parts or gaps limits assumed): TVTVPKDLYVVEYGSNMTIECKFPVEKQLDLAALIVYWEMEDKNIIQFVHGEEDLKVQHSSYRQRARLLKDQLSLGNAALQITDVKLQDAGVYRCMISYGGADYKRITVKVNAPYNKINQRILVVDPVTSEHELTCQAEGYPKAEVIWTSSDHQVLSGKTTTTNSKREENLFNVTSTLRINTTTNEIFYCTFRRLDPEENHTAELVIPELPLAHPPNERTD

Row | Binder | Relative blocking activity (EC50 wt/EC50 m × 100%) [%]
1 | B1 | 80
2 | B2 | 71
3 | B3 | 91

What follows are binders tested against T1, hPD-L1-Fc (assay: BLI (Octet K2), hPD-L1-Fc on AHC sensor, sdAb variant in solution; against wild-type KN035).

Row | Binder | KD/KD wt [ratio]
4 | B1 | 1.21
5 | B2 | 1.73
6 | B3 | 2.01

Reference: US20190352404A1 (SUZHOU ALPHAMAB, published 2019)
